Tests used:
[1] = system: cellular immune response against the antigen E7 de HPV-16; assay: ELISPOT anti-IFN-γ of splenocytes of immunized mice; assay type: in vivo, mice C57BL/6; conditions: 30 μg s.c., 2 doses every 14 days, without adjuvant
Description: In order to evaluate the cellular immune response against the antigen E7 de HPV-16, 4 groups of 3 mice females C57BL/6, from 6 to 8 weeks of born, received 2 doses of immunogens. The group 1 was immunized with the 30 μg of the recombinant protein LALF-E7; group 2 with the 30 μg of the recombinant protein E7; group 3 with 8 μg of synthetic peptide LALF and group 4 with PBS. The immunizations were made of subcutaneous way in the flank of the animal with volumes of 0.2 mL and without adjuvant. Every 14 days were administered two doses. Seven days after the second immunization, the mice were sacrificed by break-up of the cervical and the splenocytes were removed aseptically for their later analysis in a test of ELISPOT anti-gamma interferon (anti-IFN-γ). The cellular suspensions of the animals by each group met in pool and they were homogenized smoothly. […]
The test for the determination of the IFN-γ secretion was made as described previously (Vazquez-Blomquist D. et al. (2002) Induction of a strong HIV-specific CD8+ T cell response in mice using a fowlpox virus vector expressing an HIV-1 multi-CTL-epitope polypeptide. Viral Immunol. 5(2):337-356). […] After this time, the surviving cells counted and were used for determinations of ELISPOT under the same conditions.
The results were expressed as a number of spot forming cells (SFC) per 10^6 splenocytes. […]

[2] = system: J774 cells; assay: Western blot: internalization of the cargo protein E7 to the cell; assay type: cell-based; conditions: 25 μM protein, J774, 4 hours at 37° C., FIG. 5
Description: The cells J774 grown overnight at 37° C. and 5% of CO2 with RPMI 1640, 10% inactivated calf fetal serum and 2 mM de glutamine. After that, the cell were aliquoted in tubes with 5×10^6 cells each and incubated with 25 μM of fusion protein LALF-E7, 25 μM of protein E7 and PBS during 4 hours at 37° C. The sedimentation of the cells was made by a centrifugation to 1000 rpm by 10 minutes. Wash pellet in three changes of PBS. Cells were ruptured in 100 μL of RIPA buffer (Promega) mixed in vortex per 10 second and 2 min in ice. The sedimentation of the broken cells was made by a centrifugation to 12000 rpm by 15 minutes. Protein concentration was determined to the cell extract and rum 10 μg of total protein in 15% polyacrilamide gel. Subsequently the gel was transferred to a nitrocellulose membrane. The membrane was incubated for 2 hours at room temperature with an IgG goat polyclonal antibody anti-E7 HPV 16 (Santa Cruz) diluted in PBS (1:100). Wash in three changes of PBS. Subsequently, the membrane was incubated for 45 minutes at room temperature and in a dark room with an anti-goat IgG peroxidase conjugate (Sigma) diluted in PBS (1:5000). Wash in three changes of PBS. Finally the ECL system from Amersham Pharmacia Biotech was used.

B1: LALF-E7: recombinant fusion of CPP LALF to E7 protein of HPV 16, cysteine per glycine in Rb site (SEQ ID N0. 9 y 10) (protein)
chain: MAEFHYRIKPTFRRLKWKYKGKFWKASHGDTPTLHEYMLDLQPETTDLYGYEQLNDSSEEEDEIDGPAGQAEPDRAHYNIVTFCCKCDSTLRLCVQSTHVDIRTLEDLLMGTLGIVCPICSQKPGSRAHHHHHH
modifications: Artificial Sequence Description Protein fusion CPP LALF-E7
For B1, the “T CD8+ lymphocyte response” value [1] was “effective response of T CD8^+ lymphocytes”, the “number of SFC (IFN-γ secretor cells) relative to the groups immunized with VSSP and PBS” value ([1]; splenocytes 7 days after second immunization, FIG. 9) was about 8 times and the “detection of protein in cell extract by anti-E7 antibody (Western blot)” value [2] was “recognized by the anti-E7 antibody”.
